Assay [1] deals with T1, hypoxia-inducible factor 1, alpha subunit isoform 1 (HIF-1α), untagged (human, UniProt Q16665 1-826).
T1 construct: Stands for both endogenous HIF-1α (PC-3, CL-1, HEK 293) and the untagged wild-type protein expressed from pcDNA3.1-HIF-1α; also called HIF-1 alpha; pcDNA3.1-HIF-1α product
Kind of assay: IP with HIF-1α antibody, Flag immunoblot, HEK 293 cells. A general note: In western blotting, separated proteins are transferred to a membrane and probed.

The target in the next assay is T2, p300 co-activator (UniProt Q09472 2-2414).
T2 construct: Endogenous protein, detected with anti-p300 antibody (Santa Cruz); also called p300 protein
Kind of assay: co-IP with anti-Flag antibody, p300 immunoblot; association within the HIF-1α complex, may be indirect. Here is the method:
The p300 co-activator is associated with HIF-1α and MSF-A proteins—To test the hypothesis that proteins, which are known to interact with the HIF-1α protein, such as the co-activator p300, are associated with MSF-A and HIF-1α, cells were co-transfected with the pcDNA3.1-HIF-1α and the p3×Flag-MSF-A expression vectors and IP experiments were performed using either anti-FLAG or anti-HIF-1α antibodies. As shown in FIGS. 5a-c, while the anti-HIF-1α antibody was capable of precipitating the p300 protein in both cells co-transfected with the pcDNA3.1-HIF-1α and the p3×Flag-cmv-25 expression vector alone and cells co-transfected with the pcDNA3.1-HIF-1α and the p3×Flag-MSF-A vectors, the anti-Flag antibody was capable of precipitating the p300 protein only in cells that were co-transfected with the pcDNA3.1-HIF-1α and the p3×Flag-MSF-A vectors.

Assay [2] deals with T1, hypoxia-inducible factor 1, alpha …. Kind of assay: cell-based or functional assay.
The target in a further assay is T3, HIF-1β (UniProt P27540 2-789, limits assumed).
T3 construct: Endogenous protein in HEK 293 lysates; also called HIF-1β protein
Kind of assay: co-IP with anti-Flag antibody, HIF-1β immunoblot, HEK 293 cells. From the text:
FIGS. 3a-f are autoradiograms illustrating HIF-1α immunoblotting of FLAG immunoprecipitates (IP) (FIG. 3b) or whole cell extracts (WCE) (FIG. 3a), FLAG immunoblotting of HIF-1α IP (FIG. 3d) or WCE (FIG. 3c), and HIF-1β immunoblotting of FLAG IP (FIG. 3f) or WCE (FIG. 3e). HEK 293 cells were transiently co-transfected with two of the following expression vectors: p3×Flag-cmv-25 (EV), pcdna3.1-HIF-1α (HIF-1α) or p3×Flag-MSF-A (MSF-A), and two days following transfection under normoxic conditions WCE or IP were subjected to immunoblot (IB) analysis. Lane 1-EV and HIF-1α; lane 2-MSF-A and HIF-1α.
To confirm the interaction between the HIF-1α and the MSF-A proteins, HEK 293 cells were transiently co-transfected with the p3×Flag-MSF-A and the pcDNA3.1-HIF-1α vectors, and were grown for 24 hours under normoxic conditions (i.e., conditions of 20% oxygen), following which whole cell extracts (WCE) were subjected to co-immunoprecipitation (IP) using anti-FLAG or anti-HIF-1α antibodies. Following IP, the proteins were subjected to SDS-PAGE and immunoblotting (IB) using the counterpart antibody. As is shown in FIGS. 3a-d, following transfection with both expression vectors (i.e., pcDNA3.1-HIF-1α and p3×Flag-MSF-A) immunoprecipitates generated using either the anti-HIF-1α antibody or the anti-Flag antibody included the reciprocal proteins, i.e., the Flag-MSF-A or HIF-1α proteins, respectively.

T1 sequence (Q16665 whole entry, canonical isoform): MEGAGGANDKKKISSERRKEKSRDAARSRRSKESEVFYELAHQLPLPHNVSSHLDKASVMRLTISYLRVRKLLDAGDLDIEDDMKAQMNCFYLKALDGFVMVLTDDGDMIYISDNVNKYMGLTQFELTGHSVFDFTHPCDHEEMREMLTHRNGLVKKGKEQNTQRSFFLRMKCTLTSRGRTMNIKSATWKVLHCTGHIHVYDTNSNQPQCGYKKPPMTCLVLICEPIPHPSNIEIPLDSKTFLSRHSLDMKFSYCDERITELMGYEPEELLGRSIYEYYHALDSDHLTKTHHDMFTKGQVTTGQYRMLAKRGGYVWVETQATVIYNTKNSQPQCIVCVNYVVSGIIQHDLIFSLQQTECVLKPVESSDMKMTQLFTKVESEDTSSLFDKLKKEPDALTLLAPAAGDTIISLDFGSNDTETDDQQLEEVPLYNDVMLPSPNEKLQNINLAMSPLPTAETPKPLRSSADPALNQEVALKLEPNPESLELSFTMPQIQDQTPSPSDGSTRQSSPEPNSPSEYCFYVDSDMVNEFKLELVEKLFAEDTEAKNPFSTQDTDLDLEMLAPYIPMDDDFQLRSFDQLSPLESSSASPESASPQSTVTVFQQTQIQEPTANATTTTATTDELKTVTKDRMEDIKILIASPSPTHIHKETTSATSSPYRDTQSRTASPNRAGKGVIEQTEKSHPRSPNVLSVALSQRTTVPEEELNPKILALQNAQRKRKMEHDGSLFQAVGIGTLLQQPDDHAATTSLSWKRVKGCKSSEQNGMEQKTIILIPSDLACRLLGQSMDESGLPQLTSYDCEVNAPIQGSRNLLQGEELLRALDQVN
T3 sequence (P27540 2-789 limits assumed): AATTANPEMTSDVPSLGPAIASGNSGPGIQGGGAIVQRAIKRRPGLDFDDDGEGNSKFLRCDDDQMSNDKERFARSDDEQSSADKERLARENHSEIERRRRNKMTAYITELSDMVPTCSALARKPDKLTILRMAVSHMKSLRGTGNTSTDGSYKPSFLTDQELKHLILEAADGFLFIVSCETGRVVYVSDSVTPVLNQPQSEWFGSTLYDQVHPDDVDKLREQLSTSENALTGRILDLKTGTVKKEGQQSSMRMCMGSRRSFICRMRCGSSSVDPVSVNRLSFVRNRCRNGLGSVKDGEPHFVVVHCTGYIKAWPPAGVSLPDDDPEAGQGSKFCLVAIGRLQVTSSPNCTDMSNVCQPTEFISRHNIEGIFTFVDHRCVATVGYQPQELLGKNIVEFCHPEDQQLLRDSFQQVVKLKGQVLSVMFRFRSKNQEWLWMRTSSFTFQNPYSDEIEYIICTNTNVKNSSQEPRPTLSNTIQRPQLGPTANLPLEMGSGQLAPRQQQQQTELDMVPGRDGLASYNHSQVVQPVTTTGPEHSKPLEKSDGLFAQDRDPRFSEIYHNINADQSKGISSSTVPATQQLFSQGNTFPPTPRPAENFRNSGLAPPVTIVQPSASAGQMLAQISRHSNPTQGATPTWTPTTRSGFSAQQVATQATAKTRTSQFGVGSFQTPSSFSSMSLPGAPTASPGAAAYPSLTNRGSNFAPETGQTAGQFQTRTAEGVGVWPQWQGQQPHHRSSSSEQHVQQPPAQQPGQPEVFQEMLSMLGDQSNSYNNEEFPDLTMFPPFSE
T2 sequence (Q09472 2-2414 limits assumed): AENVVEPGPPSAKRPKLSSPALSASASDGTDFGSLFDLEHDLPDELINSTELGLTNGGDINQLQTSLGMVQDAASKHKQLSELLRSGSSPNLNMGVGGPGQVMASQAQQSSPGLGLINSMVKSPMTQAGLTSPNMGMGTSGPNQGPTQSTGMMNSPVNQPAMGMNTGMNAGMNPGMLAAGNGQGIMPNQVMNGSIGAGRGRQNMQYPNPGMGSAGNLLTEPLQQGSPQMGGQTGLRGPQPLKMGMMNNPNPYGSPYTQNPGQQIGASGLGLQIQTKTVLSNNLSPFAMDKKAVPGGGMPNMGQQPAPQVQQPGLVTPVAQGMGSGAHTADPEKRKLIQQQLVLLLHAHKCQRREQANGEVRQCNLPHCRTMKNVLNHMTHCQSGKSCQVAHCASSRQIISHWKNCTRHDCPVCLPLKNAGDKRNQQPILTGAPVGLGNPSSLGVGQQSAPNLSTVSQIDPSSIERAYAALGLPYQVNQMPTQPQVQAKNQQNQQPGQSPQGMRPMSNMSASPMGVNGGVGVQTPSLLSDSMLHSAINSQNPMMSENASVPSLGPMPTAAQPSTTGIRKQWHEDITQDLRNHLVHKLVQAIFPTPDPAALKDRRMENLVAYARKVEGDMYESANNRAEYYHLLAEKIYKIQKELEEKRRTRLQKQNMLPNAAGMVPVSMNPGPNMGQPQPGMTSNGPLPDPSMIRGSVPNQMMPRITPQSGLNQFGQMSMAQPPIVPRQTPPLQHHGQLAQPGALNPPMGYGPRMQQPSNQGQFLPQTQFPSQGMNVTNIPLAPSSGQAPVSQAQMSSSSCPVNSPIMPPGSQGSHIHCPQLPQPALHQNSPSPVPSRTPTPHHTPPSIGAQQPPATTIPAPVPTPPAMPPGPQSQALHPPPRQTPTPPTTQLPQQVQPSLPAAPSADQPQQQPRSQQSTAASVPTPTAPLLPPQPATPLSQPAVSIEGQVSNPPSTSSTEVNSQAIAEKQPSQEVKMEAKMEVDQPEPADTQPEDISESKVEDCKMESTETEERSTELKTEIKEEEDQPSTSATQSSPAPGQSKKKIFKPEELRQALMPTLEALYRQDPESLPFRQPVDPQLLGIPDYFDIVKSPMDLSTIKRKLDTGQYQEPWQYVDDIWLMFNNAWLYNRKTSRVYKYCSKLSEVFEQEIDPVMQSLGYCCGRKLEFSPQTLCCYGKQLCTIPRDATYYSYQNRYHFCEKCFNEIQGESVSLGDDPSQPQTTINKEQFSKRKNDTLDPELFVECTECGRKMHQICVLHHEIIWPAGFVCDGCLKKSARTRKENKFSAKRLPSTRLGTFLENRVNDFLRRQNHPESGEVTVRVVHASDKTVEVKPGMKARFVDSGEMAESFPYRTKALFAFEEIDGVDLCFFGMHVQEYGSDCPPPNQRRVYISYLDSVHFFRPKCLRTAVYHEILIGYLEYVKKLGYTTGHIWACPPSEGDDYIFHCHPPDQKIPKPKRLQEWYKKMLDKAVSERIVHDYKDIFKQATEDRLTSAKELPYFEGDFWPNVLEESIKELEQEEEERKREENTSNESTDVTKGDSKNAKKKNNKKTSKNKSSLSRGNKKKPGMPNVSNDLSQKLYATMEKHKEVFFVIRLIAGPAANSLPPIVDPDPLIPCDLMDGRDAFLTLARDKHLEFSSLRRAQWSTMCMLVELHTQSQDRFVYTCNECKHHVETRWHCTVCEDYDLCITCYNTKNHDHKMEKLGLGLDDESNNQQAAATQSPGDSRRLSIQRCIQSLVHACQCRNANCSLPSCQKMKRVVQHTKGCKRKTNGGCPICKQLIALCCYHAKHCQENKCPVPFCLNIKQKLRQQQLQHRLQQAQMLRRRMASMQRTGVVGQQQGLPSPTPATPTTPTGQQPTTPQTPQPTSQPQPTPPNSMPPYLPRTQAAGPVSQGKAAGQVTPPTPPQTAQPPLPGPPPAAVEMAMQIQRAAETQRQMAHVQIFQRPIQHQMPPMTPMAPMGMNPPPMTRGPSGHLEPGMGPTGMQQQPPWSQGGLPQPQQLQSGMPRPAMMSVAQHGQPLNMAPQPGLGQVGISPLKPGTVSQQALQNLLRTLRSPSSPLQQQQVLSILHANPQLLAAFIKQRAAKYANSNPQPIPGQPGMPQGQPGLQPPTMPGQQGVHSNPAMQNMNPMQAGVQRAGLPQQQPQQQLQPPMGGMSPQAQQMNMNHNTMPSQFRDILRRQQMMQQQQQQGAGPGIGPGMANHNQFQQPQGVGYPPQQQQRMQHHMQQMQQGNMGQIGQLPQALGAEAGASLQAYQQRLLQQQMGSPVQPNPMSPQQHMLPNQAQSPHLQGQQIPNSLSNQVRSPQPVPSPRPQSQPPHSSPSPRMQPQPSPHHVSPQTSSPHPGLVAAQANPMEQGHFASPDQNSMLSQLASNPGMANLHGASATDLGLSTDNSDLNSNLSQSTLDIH

B1: Flag-ΔG-MSF-A (p3×Flag-ΔG-MSF-A product) (other)
chain: MKKSYSGGTRTSSGRLRRLGDSSGPALKRSFEVEEVETPNSTPPRRVQTPLLRATVASSTQKFQDLGVKNSEPSARHVDSLSQRSPKASLRRVELSGPKAAEPVSRRTELSIDISSKQVENAGAIGPSRFGLKRAEVLGHKTPEPAPRRTEITIVKPQESAHRRMEPPASKVPEVPTAPATDAAPKRVEIQMPKPAEAPTAPSPAQTLENSEPAPVSQLQSRLEPKPQPPVAEATPRSQEATEAAPSCVGDMADTPRDAGLKQAPASRNEKAPVDFGYVGIDSILEQMRRKAMKQGFEFNIMVVTLINTLFKSKISRKSVQPTSEERIPKTIEIKSITHDIEEKGVRMKLTVIDTPGFGDHINNENCWQPIMKFINDQYEKYLQEEVNINRKKRIPDTRVHCCLYFIPATGHSLRPLDIEFMKRLSKVVNIVPVIAKADTLTLEERVHFKQRITADLLSNGIDVYPQKEFDEDSEDRLVNEKFREMIPFAVVGSDHEYQVNGKRILGRKTKWGTIEVENTTHCEFAYLRDLLIRTHMQNIKDITSSIHFEAYRVKRLNEGSSAMANGVEEKEPEAPEM
notes: also called AG-MSF-A; not shown: N-terminal Flag tag from vector p3×Flag-myc-CMV-25
On to B1, for which, in assay [1], the binding result is given as “binds”.

B2: Flag-ΔN-MSF-A (p3×Flag-ΔN-MSF-A product) (other)
chain: ALKRSFEVEEVETPNSTPPRRVQTPLLRATVASSTQKFQDLGVKNSEPSARHVDSLSQRSPKASLRRVELSGPKAAEPVSRRTELSIDISSKQVENAGAIGPSRFGLKRAEVLGHKTPEPAPRRTEITIVKPQESAHRRMEPPASKVPEVPTAPATDAAPKRVEIQMPKPAEAPTAPSPAQTLENSEPAPVSQLQSRLEPKPQPPVAEATPRSQEATEAAPSCVGDMADTPRDAGLKQAPASRNEKAPVDFGYVGIDSILEQMRRKAMKQGFEFNIMVVGQSGLGKSTLINTLFKSKISRKSVQPTSEERIPKTIEIKSITHDIEEKGVRMKLTVIDTPGFGDHINNENCWQPIMKFINDQYEKYLQEEVNINRKKRIPDTRVHCCLYFIPATGHSLRPLDIEFMKRLSKVVNIVPVIAKADTLTLEERVHFKQRITADLLSNGIDVYPQKEFDEDSEDRLVNEKFREMIPFAVVGSDHEYQVNGKRILGRKTKWGTIEVENTTHCEFAYLRDLLIRTHMQNIKDITSSIHFEAYRVKRLNEGSSAMANGVEEKEPEAPEM
notes: Deletion of the first 25 amino acids of MSF-A; also called N-terminal truncated form of MSF-A; not shown: N-terminal Flag tag from vector p3×FLAG-myc-CMV-25
B2: in assay [1], the binding result was “binds”.

B3: Flag-MSF-A (p3×Flag-MSF-A product, wild type) (other, not shown: small tags and cut ends)
chain: MKKSYSGGTRTSSGRLRRLGDSSGPALKRSFEVEEVETPNSTPPRRVQTPLLRATVASSTQKFQDLGVKNSEPSARHVDSLSQRSPKASLRRVELSGPKAAEPVSRRTELSIDISSKQVENAGAIGPSRFGLKRAEVLGHKTPEPAPRRTEITIVKPQESAHRRMEPPASKVPEVPTAPATDAAPKRVEIQMPKPAEAPTAPSPAQTLENSEPAPVSQLQSRLEPKPQPPVAEATPRSQEATEAAPSCVGDMADTPRDAGLKQAPASRNEKAPVDFGYVGIDSILEQMRRKAMKQGFEFNIMVVGQSGLGKSTLINTLFKSKISRKSVQPTSEERIPKTIEIKSITHDIEEKGVRMKLTVIDTPGFGDHINNENCWQPIMKFINDQYEKYLQEEVNINRKKRIPDTRVHCCLYFIPATGHSLRPLDIEFMKRLSKVVNIVPVIAKADTLTLEERVHFKQRITADLLSNGIDVYPQKEFDEDSEDRLVNEKFREMIPFAVVGSDHEYQVNGKRILGRKTKWGTIEVENTTHCEFAYLRDLLIRTHMQNIKDITSSIHFEAYRVKRLNEGSSAMANGVEEKEPEAPEM
notes: FLAG at the amino terminal of the recombinant protein; Expressed in HEK 293 or PC-3 cells and assayed in lysates; also called Flag-tagged MSF-A; recombinant MSF-A
As to B3, the binding result with p300 co-activator is “binds”. In addition, in assay [2], the “degradation half-life of HIF-1α (cycloheximide, PC-3-MSF-A cells against PC-3-Neo cells)” value came out at 40 min; the “half-life of HIF-1α protein (pulse-chase, PC-3-MSF-A cells against PC-3-Neo cells)” value was around 45 min; the “luciferase activity (HRE reporter), hypoxia as compared to normoxia, PC-3 cells” value is 50 fold. Further, in the assay with HIF-1β, the binding result is “no binding”.

The values are drawn from patent US20090098127A1 (MEDICAL RESEARCH FUND OF TEL AVIV SOURASKY MEDICAL CENTER, published 2009).
